These results are taken from patent US20170015738A1.

For assay [1], the target named is total tau in Alzheimer brain extract (human) (UniProt P10636). In words: immunodepletion of Alzheimer brain extract; western blot.
Assay [2] concerns the target hyperphosphorylated tau phosphorylated at serine 396 in human Alzheimer brain (extracts and sections) (human) (UniProt P10636). The assay is described as above.
Assay [3] concerns the target aggregated Tau in Alzheimer brain extract (Cisbio assay) (human) (UniProt P10636). The assay is described as follows: immunodepletion of AD extract; Cisbio tau aggregation assay; in comparison to hHel antibody.
The target in assay [4] is hyper-phosphorylated P301L mutant human 4R0N tau from rTg4510 mouse brain (64 and 70 kDa species; P3 / brain extract) (human) (UniProt P10636). The assay is described as follows: MSD ELISA on immobilised P3; ratio of binding to Tg4510 over wt mouse material.
The target in assay [5] is pathological hyperphosphorylated tau from human Alzheimer's disease brain, sarkosyl-insoluble P3 fraction (human) (UniProt P10636). The assay is described as follows: MSD ELISA on immobilised P3 tau; ratio of binding to AD over healthy control at saturation.
Sequence of pathological hyperphosphorylated tau from human Alzheimer's disease brain, sarkosyl-insoluble P3 fraction (human) (P10636 other isoform, or with tags, fused parts or gaps limits assumed): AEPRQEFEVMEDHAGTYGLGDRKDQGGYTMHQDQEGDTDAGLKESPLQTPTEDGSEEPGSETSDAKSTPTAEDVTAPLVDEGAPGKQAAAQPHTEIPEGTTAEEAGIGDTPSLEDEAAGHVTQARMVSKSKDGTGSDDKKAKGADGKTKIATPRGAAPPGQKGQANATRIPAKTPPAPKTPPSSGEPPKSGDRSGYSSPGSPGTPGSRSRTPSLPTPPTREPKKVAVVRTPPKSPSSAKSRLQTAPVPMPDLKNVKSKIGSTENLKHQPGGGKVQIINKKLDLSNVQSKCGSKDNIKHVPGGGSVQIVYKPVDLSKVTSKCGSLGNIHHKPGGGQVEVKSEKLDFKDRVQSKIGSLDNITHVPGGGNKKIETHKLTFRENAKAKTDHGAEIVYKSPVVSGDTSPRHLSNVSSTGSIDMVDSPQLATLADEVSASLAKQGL

Sequence of HJ8.5 (antibody) (VH): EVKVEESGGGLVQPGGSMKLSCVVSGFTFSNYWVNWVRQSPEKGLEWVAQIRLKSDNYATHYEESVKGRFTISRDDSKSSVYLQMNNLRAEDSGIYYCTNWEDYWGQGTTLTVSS
Sequence of HJ8.5 (antibody) (VL): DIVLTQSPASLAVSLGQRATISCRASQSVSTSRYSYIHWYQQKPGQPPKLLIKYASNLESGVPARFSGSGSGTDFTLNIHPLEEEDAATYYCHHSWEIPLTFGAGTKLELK
Sequence of hyper-phosphorylated P301L mutant human 4R0N tau from rTg4510 mouse brain (64 and 70 kDa species; P3 / brain extract) (human) (P10636 other isoform, or with tags, fused parts or gaps P301L P301L): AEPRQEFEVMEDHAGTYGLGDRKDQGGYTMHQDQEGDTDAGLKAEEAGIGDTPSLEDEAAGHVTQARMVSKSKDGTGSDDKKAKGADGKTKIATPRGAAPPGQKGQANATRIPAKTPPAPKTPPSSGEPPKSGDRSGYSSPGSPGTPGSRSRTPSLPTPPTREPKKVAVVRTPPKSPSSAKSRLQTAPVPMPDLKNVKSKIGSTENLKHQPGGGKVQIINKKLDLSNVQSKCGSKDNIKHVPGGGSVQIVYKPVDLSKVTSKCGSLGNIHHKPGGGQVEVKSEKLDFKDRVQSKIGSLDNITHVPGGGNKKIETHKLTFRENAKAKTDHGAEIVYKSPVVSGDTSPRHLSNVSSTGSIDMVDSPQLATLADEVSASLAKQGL
Sequence of hyperphosphorylated tau phosphorylated at serine 396 in human Alzheimer brain (extracts and sections) (human) (P10636 other isoform, or with tags, fused parts or gaps limits assumed): as the sequence (P10636 other isoform, or with tags, fused parts or gaps limits assumed) above
Sequence of total tau in Alzheimer brain extract (human) (P10636 other isoform, or with tags, fused parts or gaps limits assumed): as above
Sequence of aggregated Tau in Alzheimer brain extract (Cisbio assay) (human) (P10636 other isoform, or with tags, fused parts or gaps limits assumed): as above

Take HJ8.5 (antibody): the values for the percent removed by immunodepletion in assay [1] and in assay [2] were 89% and 88%, respectively. Moreover, the percent of aggregated Tau removed in assay [3] came to 99%. Besides, in assay [4], the TG/wt came out at 51 fold. Further, the AD/ctrl in assay [5] was found to be 3 fold.
